For twelve molecules, EC50 results are on record in US20240228562A1 (Pieris, published 2024).

In assay [1] the target is T1, recombinant human CTGF protein (R&D Systems, SEQ ID NO: 79) (human, UniProt P29279 27-349).
T1 construct: Bought; also called human CTGF/CNN2; huCTGF
T1 sequence: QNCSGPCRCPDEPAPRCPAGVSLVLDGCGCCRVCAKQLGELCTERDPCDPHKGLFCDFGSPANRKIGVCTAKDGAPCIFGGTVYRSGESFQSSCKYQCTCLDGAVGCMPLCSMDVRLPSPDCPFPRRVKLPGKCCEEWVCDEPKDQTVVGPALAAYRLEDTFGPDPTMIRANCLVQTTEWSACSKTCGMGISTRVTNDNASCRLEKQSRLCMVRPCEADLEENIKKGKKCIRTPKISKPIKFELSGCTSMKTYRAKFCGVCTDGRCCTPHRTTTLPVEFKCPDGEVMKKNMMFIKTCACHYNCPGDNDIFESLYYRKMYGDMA
Briefly: HTRF, 1 nM biotinylated human CTGF. The method, then: Binding of some fusion proteins was tested by a Homogeneous Time Resolved Fluorescence (HTRF assay). In detail, 1 nM of biotinylated human CTGF (R&D Systems) was incubated for 1 h with a titration of some lipocalins starting at 5 nM in 384 Flat Bottom White Polystyrol microtiter plate (Greiner). Samples were diluted in PBS containing 0.1% Tween 20 and 2% BSA. As donor, Streptavidin-Terbium at a concentration of 0,006 μg/mL was used, the acceptor was 0.2 μg/mL anti-His-d2 (both CisBio). After another 1 h of incubation, the fluorescence intensity of the donor and acceptor on the plate was read using a fluorescence microplate reader M1000 (Tecan) with the standard settings recommended by CisBio. The calculated ratio of signals was used for the curve fitting performed in GraphPad Prism 7 software.

In assay [2] the target is T1, recombinant human CTGF protein (R&D …). Put plainly: ELISA, coated human CTGF. As for the experimental part: Binding of fusion proteins was tested by an ELISA assay. In detail, a 384-well plate suitable for fluorescence measurements (Greiner FLUOTRAC™ 600, black flat bottom, high-binding) was coated with 20 μl of human CTGF (R&D Systems) at a concentration of 1 μg/ml in PBS over night at 4° C. After washing with PBS with 0.05% Tween 20, wells were blocked with 100 μl blocking buffer containing 0.1% Tween 20 and 2% BSA (PBS-T/BSA) for 1 h at room temperature. 20 μl of serially diluted muteins were incubated in PBS-T/BSA for 1 h at room temperature (RT).
The residual supernatants were discarded and 20 μl HRP-labeled anti-NGAL or anti-His-Tag antibody was added at a predetermined optimal concentration in PBS-T/BSA and incubated for 1 h at RT. After washing, 20 μl fluorogenic HRP substrate (QuantaBlu, Thermo) was added to each well, and the reaction was allowed to proceed for 2 to 60 minutes. The fluorescence intensity of every well on the plate was read using a fluorescence microplate reader (Tecan). Curve fitting was performed using GraphPad Prism 7 or 8 software.
Background: ELISA stands for enzyme-linked immunosorbent assay.

B1: fusion protein of SEQ ID NO: 64 (designed binder)
chain: QDSTSDLIPAPPLSKVPLQQNFQDNQFQGKWYVVGLAGNYRLREDKDPSKMGATIYELKEDKSYDVTQVQFDDKKCLYVIETFVPGSQPGEFTLGAIKSYPGLTSQLVRVVSTNYNQHAMVFVKKVWPNLEYFQIVLYGRTKELTSELKENFIRFSKSLGLPENHIVFPVPIDQCIDGGGGGSGGGGSGGGGSQDSTSDLIPAPPLSKVPLQQNFQDNQFQGKWYVVGLAGNAILREDKQPAKMFATIYELKEDKSYDVTSVRFEAKSCKYTIKTFVPGSQPGEFTAGYIKSAPGQTSTLVRVVSTNYNQHAMVFFKHVTQNREIFVITLYGRTKELTSELKENFIRFSKSLGLPENHIVFPVPIDQCIDG
notes: not shown: C-terminal His-tag
What is called EC50 is the concentration that produces a half-maximal response. On to B1, for which the concentration for a half-maximal effect (EC50) in assay [1] turned out to be 580 pM.

B2: fusion protein of SEQ ID NO: 63 (designed binder)
chain: QDSTSDLIPAPPLSKVPLQQNFQDNQFQGKWYVVGRAGNNQLREDKSPPKMWATIYELKEDKSYDVTHVHFSTKKCRYIIDTFVPGSQPGEFTAGAIKSGPGLTSPLVRVVSTNYNQHAMVFFKWVTQNREWFTITLYGRTKELTSELKENFIRFSKSLGLPENHIVFPVPIDQCIDGGGGGSGGGGSGGGGSQDSTSDLIPAPPLSKVPLQQNFQDNQFQGKWYVVGLAGNAILREDKQPAKMFATIYELKEDKSYDVTSVRFEAKSCKYTIKTFVPGSQPGEFTAGYIKSAPGQTSTLVRVVSTNYNQHAMVFFKHVTQNREIFVITLYGRTKELTSELKENFIRFSKSLGLPENHIVFPVPIDQCIDG
notes: not shown: C-terminal His-tag
On to B2, for which the EC50 in assay [1] amounted to 580 pM.

B3: fusion protein of SEQ ID NO: 68 (designed binder)
chain: QDSTSDLIPAPPLSKVPLQQNFQDNQFQGKWYVVGLAGNAILREDKQPAKMFATIYELKEDKSYDVTSVRFEAKSCSYTSKTFVPGSQPGEFTAGNIKSAPGQTSTLVRVVSTNYNQHAMVFFKHVSQNRETFVITLYGRTKELTSELKENFIRFSKSLGLPENHIVFPVPIDQCIDGGGGGSGGGGSGGGGSQDSTSDLIPAPPLSKVPLQQNFQDNQFQGKWYVVGWAGNVKLREDKQPQKMSATIYELKEDKSYDVTEVVFEQKKCHYIIKTFVPGSQPGEFTAGDIKSPPGYTSSLVRVVSTNYNQHAMVFFKKVSQNREFFWITLYGRTKELTSELKENFIRFSKSLGLPENHIVFPVPIDQCIDG
notes: not shown: C-terminal His-tag
For B3, the EC50 in assay [1] came out at 560 pM.

B4: fusion protein of SEQ ID NO: 73 (designed binder)
chain: QDSTSDLIPAPPLSKVPLQQNFQDNQFQGKWYVVGLAGNAILREDKYPAKMFATIYELKEDKSYDVTSVRFENKSCVYTSKTFVPGSQPGEFTTGNIKSAPGQTSTLVRVVSTNYNQHAMVFFKHVSQNREFFVITLYGRTKELTSELKENFIRFSKSLGLPENHIVFPVPIDQCIDGGGGGSGGGGSGGGGSQDSTSDLIPAPPLSKVPLQQNFQDNQFQGKWYVVGWAGNVKLREDKQPQKMSATIYELKEDKSYDVTEVVFEQKKCHYIIKTFVPGSQPGEFTAGDIKSPPGYTSSLVRVVSTNYNQHAMVFFKKVSQNREFFWITLYGRTKELTSELKENFIRFSKSLGLPENHIVFPVPIDQCIDG
notes: not shown: C-terminal His-tag
For B4, the EC50 in assay [1] came out at 830 pM.

B5: fusion protein of SEQ ID NO: 71 (designed binder)
chain: QDSTSDLIPAPPLSKVPLQQNFQDNQFQGKWYVVGLAGNAILREDKYPAKMFATIYELKEDKSYDVTSVRFENKSCVYTIKTFVPGSQPGEFTTGNIKSAPGQTSTLVRVVSTNYNQHAMVFFKHVSQNREFFVITLYGRTKELTSELKENFIRFSKSLGLPENHIVFPVPIDQCIDGGGGGSGGGGSGGGGSQDSTSDLIPAPPLSKVPLQQNFQDNQFQGKWYVVGWAGNVKLREDKQPQKMSATIYELKEDKSYDVTEVVFEQKKCHYIIKTFVPGSQPGEFTAGDIKSPPGYTSSLVRVVSTNYNQHAMVFFKKVSQNREFFWITLYGRTKELTSELKENFIRFSKSLGLPENHIVFPVPIDQCIDG
notes: not shown: C-terminal His-tag
As to B5, in assay [1], the EC50 came to 940 pM.

B6: fusion protein of SEQ ID NO: 62 (designed binder)
chain: QDSTSDLIPAPPLSKVPLQQNFQDNQFQGKWYVVGRAGNNQLREDKSPPKMWATIYELKEDKSYDVTHVHFSTKKCRYIIDTFVPGSQPGEFTAGAIKSGPGLTSPLVRVVSTNYNQHAMVFFKWVTQNREWFTITLYGRTKELTSELKENFIRFSKSLGLPENHIVFPVPIDQCIDGGGGGSGGGGSGGGGSQDSTSDLIPAPPLSKVPLQQNFQDNQFQGKWYVVGWAGNVKLREDKQPQKMSATIYELKEDKSYDVTEVVFEQKKCHYIIKTFVPGSQPGEFTAGDIKSPPGYTSSLVRVVSTNYNQHAMVFFKKVSQNREFFWITLYGRTKELTSELKENFIRFSKSLGLPENHIVFPVPIDQCIDG
notes: not shown: C-terminal His-tag
With B6, the half-maximal effective concentration (EC50) in assay [1] turned out to be 630 pM.

B7: fusion protein of SEQ ID NO: 66 (designed binder)
chain: QDSTSDLIPAPPLSKVPLQQNFQDNQFHGKWYVVGLAGNKILRIDKQPAKMFATIYELKEDKSYDVTSVRFEARSCSYTIKTFVPGSQPGEFTAGNIKSAPGQTSTLVRVVSTNYNQHAMVFFKHVSQNRETFVITLYGRTKELTSELKENFIRFSKSLGLPENHIVFPVPIDQCIDGGGGGSGGGGSGGGGSQDSTSDLIPAPPLSKVPLQQNFQDNQFHGKWYVVGRAGNNRLREDKDPPKMWATIYELKEDKSYDVTHVHFMTKKCRYIIDTFVPGSQPGEFTLGAIKSGPGMTSPLVRIVSTNYNQHAMVFFKWVNQNREWFTITLYGRTKELTSELKENFIRFSKSLGLPENHIVFPVPIDQCIDG
With B7, the EC50 in assay [2] was found to be 1200 pM.

B8: fusion protein of SEQ ID NO: 70 (designed binder)
chain: QDSTSDLIPAPPLSKVPLQQNFQDNQFQGKWYVVGWAGNVKLREDKQPQKMSATIYELKEDKSYDVTEVVFEQKKCHYIIKTFVPGSQPGEFTAGDIKSPPGYTSSLVRVVSTNYNQHAMVFFKKVSQNREFFWITLYGRTKELTSELKENFIRFSKSLGLPENHIVFPVPIDQCIDGGGGGSGGGGSGGGGSQDSTSDLIPAPPLSKVPLQQNFQDNQFQGKWYVVGLAGNAILREDKQPAKMFATIYELKEDKSYDVTSVRFEAKSCKYTIKTFVPGSQPGEFTAGYIKSAPGQTSTLVRVVSTNYNQHAMVFFKHVTQNREIFVITLYGRTKELTSELKENFIRFSKSLGLPENHIVFPVPIDQCIDG
notes: not shown: C-terminal His-tag
With B8, in assay [1], the EC50 was determined as 720 pM.

B9: fusion protein of SEQ ID NO: 65 (designed binder)
chain: QDSTSDLIPAPPLSKVPLQQNFQDNQFHGKWYVVGRAGNNRLREDKDPPKMWATIYELKEDKSYDVTHVHFMTKKCRYIIDTFVPGSQPGEFTLGAIKSGPGMTSPLVRIVSTNYNQHAMVFFKWVNQNREWFTITLYGRTKELTSELKENFIRFSKSLGLPENHIVFPVPIDQCIDGGGGGSGGGGSGGGGSQDSTSDLIPAPPLSKVPLQQNFQDNQFHGKWYVVGLAGNKILRIDKQPAKMFATIYELKEDKSYDVTSVRFEARSCSYTIKTFVPGSQPGEFTAGNIKSAPGQTSTLVRVVSTNYNQHAMVFFKHVSQNRETFVITLYGRTKELTSELKENFIRFSKSLGLPENHIVFPVPIDQCIDG
Turning to B9, the EC50 in assay [2] is 610 pM.

B10: fusion protein of SEQ ID NO: 69 (designed binder)
chain: QDSTSDLIPAPPLSKVPLQQNFQDNQFQGKWYVVGLAGNAILREDKQPAKMFATIYELKEDKSYDVTSVRFEAKSCSYTSKTFVPGSQPGEFTAGNIKSAPGQTSTLVRVVSTNYNQHAMVFFKHVSQNRETFVITLYGRTKELTSELKENFIRFSKSLGLPENHIVFPVPIDQCIDGGGGGSGGGGSGGGGSQDSTSDLIPAPPLSKVPLQQNFQDNQFQGKWYVVGLAGNYRLREDKDPSKMGATIYELKEDKSYDVTQVQFDDKKCLYVIETFVPGSQPGEFTLGAIKSYPGLTSQLVRVVSTNYNQHAMVFVKKVWPNLEYFQIVLYGRTKELTSELKENFIRFSKSLGLPENHIVFPVPIDQCIDG
notes: not shown: C-terminal His-tag
Take B10: the EC50 in assay [1] is 650 pM.

B11: fusion protein of SEQ ID NO: 72 (designed binder)
chain: QDSTSDLIPAPPLSKVPLQQNFQDNQFQGKWYVVGLAGNAILREDKYPAKMFATIYELKEDKSYDVTSVRFENKSCVYTIKTFVPGSQPGEFTTGNIKSAPGQTSTLVRVVSTNYNQHAMVFFKHVSQNREFFVITLYGRTKELTSELKENFIRFSKSLGLPENHIVFPVPIDQCIDGGGGGSGGGGSGGGGSQDSTSDLIPAPPLSKVPLQQNFQDNQFQGKWYVVGLAGNYRLREDKDPSKMGATIYELKEDKSYDVTQVQFDDKKCLYVIETFVPGSQPGEFTLGAIKSYPGLTSQLVRVVSTNYNQHAMVFVKKVWPNLEYFQIVLYGRTKELTSELKENFIRFSKSLGLPENHIVFPVPIDQCIDG
notes: not shown: C-terminal His-tag
For B11, the EC50 in assay [1] turned out to be 680 pM.

B12: fusion protein of SEQ ID NO: 75 (designed binder)
chain: QDSTSDLIPAPPLSKVPLQQNFQDNQFQGKWYVVGLAGNAILREDKQPAKMFATIYELKEDKSYDVTSVRFEAKSCKYTIKTFVPGSQPGEFTAGYIKSAPGQTSTLVRVVSTNYNQHAMVFFKHVTQNREIFVITLYGRTKELTSELKENFIRFSKSLGLPENHIVFPVPIDQCIDGGGGGSGGGGSGGGGSQDSTSDLIPAPPLSKVPLQQNFQDNQFQGKWYVVGLAGNYRLREDKDPSKMGATIYELKEDKSYDVTQVQFDDKKCLYVIETFVPGSQPGEFTLGAIKSYPGLTSQLVRVVSTNYNQHAMVFVKKVWPNLEYFQIVLYGRTKELTSELKENFIRFSKSLGLPENHIVFPVPIDQCIDG
notes: not shown: C-terminal His-tag
Turning to B12, the half-maximal effective concentration (EC50) in assay [1] was 700 pM.
